Test results reported in the supplement of paper PMC10126150.
± gives the standard deviation of the averaged measurements.

Tested on: ATP
Test: switch fluorescence ratio, 500 uM ATP over buffer (Cy3 cluster intensity, sum of 5 cycles each) (fold (ratio)); higher = stronger signal-on switching upon ATP binding; sequences stand for … in TCGTCGGCAGCGTCAGATGTGTATAAGAGACAGTTTTTTTTTTTTTTTTTTTTTTTTT…TC
Conditions: aptamer strand: ATP DNA aptamer (quencher-CACCTGGGGGAGTATTGCGGAGGAAGG + anchor), 100 nM annealed; ATP concentration: 500 uM
In short: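 For every switch-domain sequence, the fluorescence ratio is the mean of per-cluster values, each being summed target-cycle Cy3 intensity over summed buffer-cycle Cy3 intensity. Clusters outside 100-1000 RFU were excluded. On a modified Illumina MiSeq flow-cell, the Cy3-labelled switching-strand clusters were annealed to 100 nM quencher-labelled ATP aptamer, imaged in selection buffer and then after 15 min with 500 uM ATP at 22 °C. Five such cycles were run, with NaOH stripping and re-annealing between them.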
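Also: ATP exposure 15 min at 22 °C before imaging.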

ATCAAGTCGG
switch fluorescence ratio: 0.969 ± 0.02

ATCAAGTGGT
switch fluorescence ratio: 0.9701 ± 0.006

ATCAATATAG
switch fluorescence ratio: 1.03 ± 0.018

ATCAATGACG
switch fluorescence ratio: 0.95 ± 0.059

ATCACGGGGA
switch fluorescence ratio: 1.01 ± 0.032

ATCACGTCGG
switch fluorescence ratio: 1.014 ± 0.0093

ATCACTGGTA
switch fluorescence ratio: 1.03 ± 0.017

ATCAGAATAC
switch fluorescence ratio: 1.74 ± 0.43

ATCAGAGGTA
switch fluorescence ratio: 1.01 ± 0.014

ATCAGCCGGC
switch fluorescence ratio: 0.99 ± 0.034

ATCAGGGCT
switch fluorescence ratio: 1.01 ± 0.028

ATCAGGGGAG
switch fluorescence ratio: 1 ± 0.018

ATCAGGGGGC
switch fluorescence ratio: 1.03 ± 0.036

ATCAGGGTGT
switch fluorescence ratio: 1.16 ± 0.031

ATCAGGTGCG
switch fluorescence ratio: 1.2924 ± 0.00069

ATCATAATAC
switch fluorescence ratio: 1.406 ± 0.0065

ATCATAATTG
switch fluorescence ratio: 1.005 ± 0.0092

ATCATCGCAG
switch fluorescence ratio: 1.08 ± 0.058

ATCATCTGAA
switch fluorescence ratio: 0.987 ± 0.016

ATCATCTTGT
switch fluorescence ratio: 1.042 ± 0.0015

ATCATGGATG
switch fluorescence ratio: 0.997 ± 0.019

ATCATGTGGC
switch fluorescence ratio: 0.989 ± 0.025

ATCATTGCGG
switch fluorescence ratio: 0.9746 ± 0.0012

ATCATTGCTG
switch fluorescence ratio: 0.949 ± 0.056

ATCATTGGTT
switch fluorescence ratio: 1.01 ± 0.015

ATCATTTATT
switch fluorescence ratio: 1.01 ± 0.042

ATCATTTGGC
switch fluorescence ratio: 0.981 ± 0.068

ATCATTTTAG
switch fluorescence ratio: 0.995 ± 0.01

ATCCACGCTA
switch fluorescence ratio: 1.45 ± 0.022

ATCCAGGTTT
switch fluorescence ratio: 1.1 ± 0.036

ATCCCAATGT
switch fluorescence ratio: 1.14 ± 0.026

ATCCCTTCCA
switch fluorescence ratio: 1.24 ± 0.087

ATCCGGGCGG
switch fluorescence ratio: 1.02 ± 0.071

ATCCGTTGCT
switch fluorescence ratio: 1.01 ± 0.048

ATCCTGGGGG
switch fluorescence ratio: 1.4 ± 0.7

ATCCTGTAGT
switch fluorescence ratio: 0.999 ± 0.044

ATCCTTGTGT
switch fluorescence ratio: 0.993 ± 0.02

ATCCTTTTGG
switch fluorescence ratio: 1.03 ± 0.094

ATCGAAAGTT
switch fluorescence ratio: 0.99 ± 0.013

ATCGAAGGTC
switch fluorescence ratio: 0.999 ± 0.015

ATCGAATGCT
switch fluorescence ratio: 1.001 ± 0.0096

ATCGACCGGC
switch fluorescence ratio: 1.04 ± 0.071

ATCGACTTGG
switch fluorescence ratio: 1.016 ± 0.0053

ATCGAGAGGC
switch fluorescence ratio: 1.06 ± 0.047

ATCGATCGTT
switch fluorescence ratio: 0.9986 ± 0.0027

ATCGATGGGA
switch fluorescence ratio: 0.987 ± 0.07

ATCGATTTCG
switch fluorescence ratio: 0.975 ± 0.017

ATCGCAGACA
switch fluorescence ratio: 1.04 ± 0.015

ATCGCTAGCT
switch fluorescence ratio: 0.9905 ± 0.0068

ATCGGAATCC
switch fluorescence ratio: 1.19 ± 0.094

ATCGGACGGG
switch fluorescence ratio: 1.02 ± 0.016

ATCGGATTAG
switch fluorescence ratio: 0.995 ± 0.0094

ATCGGCACAT
switch fluorescence ratio: 1.1 ± 0.012

ATCGGCGCGC
switch fluorescence ratio: 0.9957 ± 0.0026

ATCGGGAACT
switch fluorescence ratio: 1.02 ± 0.015

ATCGGGGGAC
switch fluorescence ratio: 0.959 ± 0.021

ATCGGGGGGC
switch fluorescence ratio: 1 ± 0.055

ATCGGGGGGT
switch fluorescence ratio: 1.01 ± 0.035

ATCGGGGGTA
switch fluorescence ratio: 0.982 ± 0.016

ATCGGGTCGA
switch fluorescence ratio: 1 ± 0.023

ATCGGGTGTA
switch fluorescence ratio: 0.994 ± 0.013

ATCGGTACTG
switch fluorescence ratio: 0.965 ± 0.027

ATCGGTTTCT
switch fluorescence ratio: 1.002 ± 0.0083

ATCGGTTTGG
switch fluorescence ratio: 0.996 ± 0.0095

ATCGTAAGGA
switch fluorescence ratio: 1.02 ± 0.046

ATCGTACAGC
switch fluorescence ratio: 1.13 ± 0.017

ATCGTCACGG
switch fluorescence ratio: 1.022 ± 0.0012

ATCGTCGGAT
switch fluorescence ratio: 0.982 ± 0.022

ATCGTCTCGC
switch fluorescence ratio: 1.03 ± 0.05

ATCGTGGGGT
switch fluorescence ratio: 0.971 ± 0.016

ATCGTGTATG
switch fluorescence ratio: 0.968 ± 0.028

ATCGTTAAAC
switch fluorescence ratio: 1.01 ± 0.0099

ATCGTTAATT
switch fluorescence ratio: 0.981 ± 0.041

ATCGTTACGA
switch fluorescence ratio: 1.02 ± 0.026

ATCGTTCGCG
switch fluorescence ratio: 0.996 ± 0.016

ATCGTTCTTT
switch fluorescence ratio: 0.973 ± 0.027

ATCGTTGCGT
switch fluorescence ratio: 1.02 ± 0.031

ATCTAAACTT
switch fluorescence ratio: 1.02 ± 0.035

ATCTAAATAA
switch fluorescence ratio: 1.03 ± 0.019

ATCTAAGGTT
switch fluorescence ratio: 1.01 ± 0.025

ATCTAGCAAC
switch fluorescence ratio: 1.36 ± 0.049

ATCTAGGTAC
switch fluorescence ratio: 1.06 ± 0.058

ATCTATCGGA
switch fluorescence ratio: 1.0073 ± 0.00071

ATCTATGCGA
switch fluorescence ratio: 1.0635 ± 0.0004

ATCTCAGGGC
switch fluorescence ratio: 0.979 ± 0.014

ATCTCATAGT
switch fluorescence ratio: 1 ± 0.025

ATCTCCGGTT
switch fluorescence ratio: 1.1 ± 0.17

ATCTCTTTCT
switch fluorescence ratio: 1.04 ± 0.019

ATCTGACTCC
switch fluorescence ratio: 2.52 ± 0.19

ATCTGATGCG
switch fluorescence ratio: 0.981 ± 0.1

ATCTGCCTGC
switch fluorescence ratio: 1.074 ± 0.009

ATCTGGGCGG
switch fluorescence ratio: 0.997 ± 0.029

ATCTGGGGAA
switch fluorescence ratio: 1.01 ± 0.045

ATCTGGTAAT
switch fluorescence ratio: 1.005 ± 0.0031

ATCTGGTTTG
switch fluorescence ratio: 0.955 ± 0.023

ATCTGTAAGG
switch fluorescence ratio: 1.02 ± 0.043

ATCTGTAGGG
switch fluorescence ratio: 1.023 ± 0.0075

ATCTGTCAGT
switch fluorescence ratio: 0.9807 ± 0.0092

ATCTGTTAGG
switch fluorescence ratio: 1.03 ± 0.041

ATCTTAATTG
switch fluorescence ratio: 1.005 ± 0.0075

ATCTTATGTT
switch fluorescence ratio: 0.987 ± 0.025

ATCTTTCCTG
switch fluorescence ratio: 1.053 ± 0.0087

ATCTTTTTCT
switch fluorescence ratio: 1.03 ± 0.052

ATGAAAATGG
switch fluorescence ratio: 0.971 ± 0.019

ATGAAAGACG
switch fluorescence ratio: 1.04 ± 0.075

ATGAAAGTAT
switch fluorescence ratio: 1.011 ± 0.0061

ATGAACTAGG
switch fluorescence ratio: 0.991 ± 0.022

ATGAAGACGG
switch fluorescence ratio: 1.03 ± 0.059

ATGAAGGATG
switch fluorescence ratio: 1.01 ± 0.02

ATGAAGGGAG
switch fluorescence ratio: 0.991 ± 0.061

ATGAAGTGGA
switch fluorescence ratio: 0.9555 ± 0.0093

ATGAAGTTTT
switch fluorescence ratio: 1.02 ± 0.028

ATGAATGAGT
switch fluorescence ratio: 0.985 ± 0.016

ATGAATGCGG
switch fluorescence ratio: 0.99 ± 0.0094

ATGAATTGGA
switch fluorescence ratio: 0.989 ± 0.017

ATGACAGAAG
switch fluorescence ratio: 1.03 ± 0.05

ATGACCTTCA
switch fluorescence ratio: 2.1 ± 0.078

ATGACGGAGC
switch fluorescence ratio: 1.94 ± 0.31

ATGACGGTGG
switch fluorescence ratio: 0.94 ± 0.014

ATGAGAAGAC
switch fluorescence ratio: 1.02 ± 0.021

ATGAGAGGAA
switch fluorescence ratio: 0.981 ± 0.028

ATGAGAGGAT
switch fluorescence ratio: 0.9797 ± 0.0026

ATGAGATTCG
switch fluorescence ratio: 0.99 ± 0.026

ATGAGCTGTG
switch fluorescence ratio: 1.01 ± 0.056

ATGAGGATGT
switch fluorescence ratio: 1 ± 0.019

ATGAGGGATT
switch fluorescence ratio: 0.965 ± 0.011

ATGAGGGGTG
switch fluorescence ratio: 1.013 ± 0.0076

ATGAGGTCGT
switch fluorescence ratio: 1.008 ± 0.007

ATGAGTGGCT
switch fluorescence ratio: 0.999 ± 0.054

ATGAGTTTTC
switch fluorescence ratio: 1.024 ± 0.0043

ATGATACCTT
switch fluorescence ratio: 1.17 ± 0.019

ATGATAGGGG
switch fluorescence ratio: 0.998 ± 0.023

ATGATATTAG
switch fluorescence ratio: 1.004 ± 0.0066

ATGATCAACG
switch fluorescence ratio: 0.999 ± 0.015

ATGATCAGCT
switch fluorescence ratio: 0.9824 ± 0.0077

ATGATCCCCG
switch fluorescence ratio: 1.05 ± 0.025

ATGATCGCGT
switch fluorescence ratio: 1.01 ± 0.024

ATGATCTAGT
switch fluorescence ratio: 1.03 ± 0.064

ATGATCTCCG
switch fluorescence ratio: 1.32 ± 0.017

ATGATGAAGA
switch fluorescence ratio: 1.02 ± 0.019

ATGATGAAGT
switch fluorescence ratio: 1.02 ± 0.017

ATGATGGGGT
switch fluorescence ratio: 1.01 ± 0.06

ATGATGTGAG
switch fluorescence ratio: 1.01 ± 0.051

ATGATTATAT
switch fluorescence ratio: 0.99 ± 0.017

ATGATTCAGC
switch fluorescence ratio: 1.03 ± 0.083

ATGATTCTGT
switch fluorescence ratio: 1 ± 0.021

ATGATTGCAC
switch fluorescence ratio: 1.01 ± 0.057

ATGATTGTCG
switch fluorescence ratio: 0.994 ± 0.017

ATGATTTGGC
switch fluorescence ratio: 1.04 ± 0.048

ATGATTTTAG
switch fluorescence ratio: 1 ± 0.031

ATGATTTTGG
switch fluorescence ratio: 0.992 ± 0.023

ATGCAATTTT
switch fluorescence ratio: 1.017 ± 0.0034

ATGCACACTC
switch fluorescence ratio: 1.225 ± 0.0043

ATGCAGAGAG
switch fluorescence ratio: 1.01 ± 0.031

ATGCAGAGTA
switch fluorescence ratio: 1.01 ± 0.018

ATGCAGCAT
switch fluorescence ratio: 1.06 ± 0.036

ATGCAGGGTT
switch fluorescence ratio: 0.978 ± 0.053

ATGCAGTGTG
switch fluorescence ratio: 1.02 ± 0.019

ATGCATACTG
switch fluorescence ratio: 1.03 ± 0.022

ATGCATATCG
switch fluorescence ratio: 1 ± 0.036

ATGCATGGGA
switch fluorescence ratio: 0.987 ± 0.02

ATGCATTGTT
switch fluorescence ratio: 1 ± 0.027

ATGCCAGCGC
switch fluorescence ratio: 1.02 ± 0.025

ATGCCGATCG
switch fluorescence ratio: 1.05 ± 0.021

ATGCCGGGAT
switch fluorescence ratio: 1.02 ± 0.02

ATGCCGGGGC
switch fluorescence ratio: 1.02 ± 0.037

ATGCCTGTGT
switch fluorescence ratio: 0.977 ± 0.012

ATGCGAAGAT
switch fluorescence ratio: 1.01 ± 0.011

ATGCGCAAGG
switch fluorescence ratio: 1.25 ± 0.033

ATGCGCAGAA
switch fluorescence ratio: 1.01 ± 0.034

ATGCGCGCCG
switch fluorescence ratio: 0.982 ± 0.037

ATGCGGCTG
switch fluorescence ratio: 1.04 ± 0.11

ATGCGGTAGG
switch fluorescence ratio: 1.01 ± 0.016

ATGCGTGGTA
switch fluorescence ratio: 1.02 ± 0.041

ATGCGTTTTG
switch fluorescence ratio: 1.01 ± 0.017

ATGCTAAGCT
switch fluorescence ratio: 1.013 ± 0.0096

ATGCTAATTT
switch fluorescence ratio: 0.9666 ± 0.0015

ATGCTACCAT
switch fluorescence ratio: 1.05 ± 0.022

ATGCTATGTG
switch fluorescence ratio: 0.9752 ± 0.0055

ATGCTTCGTG
switch fluorescence ratio: 0.975 ± 0.027

ATGCTTTTTT
switch fluorescence ratio: 0.994 ± 0.017

ATGGAAAGGT
switch fluorescence ratio: 1.009 ± 0.0074

ATGGAAAGTG
switch fluorescence ratio: 0.9599 ± 0.0071

ATGGAAGCTA
switch fluorescence ratio: 1.02 ± 0.013

ATGGAAGGCG
switch fluorescence ratio: 1.01 ± 0.036

ATGGAATGAG
switch fluorescence ratio: 0.998 ± 0.012

ATGGAGGGTG
switch fluorescence ratio: 1.04 ± 0.031

ATGGAGTGG
switch fluorescence ratio: 1 ± 0.049

ATGGATAAGG
switch fluorescence ratio: 1.01 ± 0.024

ATGGATATTA
switch fluorescence ratio: 1.03 ± 0.046

ATGGATGAGA
switch fluorescence ratio: 0.989 ± 0.03

ATGGATGGAG
switch fluorescence ratio: 0.99 ± 0.013

ATGGCAATTC
switch fluorescence ratio: 2.51 ± 0.068

ATGGCAGGG
switch fluorescence ratio: 1.016 ± 0.0061

ATGGCCTCGG
switch fluorescence ratio: 1.02 ± 0.025

ATGGCGAATT
switch fluorescence ratio: 0.995 ± 0.073

ATGGCGGGGA
switch fluorescence ratio: 0.984 ± 0.052

ATGGCTAGAA
switch fluorescence ratio: 0.985 ± 0.026

ATGGCTATTT
switch fluorescence ratio: 0.9852 ± 0.0086

ATGGCTGGCT
switch fluorescence ratio: 1.04 ± 0.041
